Reference: the supplement of paper PMC12764529
± gives the half width of the 95% confidence interval.

Tests used:
[1] = folding stability dG unfold from trypsin proteolysis; higher = more stable
How it was run: (§1)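 K50 was inferred by Bayesian fitting of sequencing counts obtained after protease digestion of designed mini-proteins. Unfolding free energy was derived by comparison with a sequence-predicted unfolded-state K50 and a shared folded-state K50, for each protease or both combined. The mini-proteins were under 80 residues, had no cysteine, were carried in a PA-tagged cDNA display construct, and were kept only if AlphaFold2 dimer inter-PAE exceeded 15.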

[2] = folding stability dG unfold from chymotrypsin proteolysis; higher = more stable
How it was run: as §1

[3] = folding stability dG unfold (combined trypsin and chymotrypsin); higher = more stable
How it was run: as §1

Sequence	folding stability dG unfold [1]	folding stability dG unfold [2]	folding stability dG unfold [3]
SAGKSIKIPYIIRFPSPNGEPHLMRIKEVTINPKPGMVKIKFQMPGKKQTHTVPPNNIEILPDPEEILKSAG [r5_15_TrROS]	0.116 ± 0.22 kcal/mol	-0.0282 ± 0.33 kcal/mol	-0.0216 ± 0.29 kcal/mol
SAGKTATFTFTLPLPENDLILRVTVRVEEVEDIGEKKVYRVNVEIDLIDKDGVPHRFSFSFLVPAEELFSAG [r14_916_TrMRF]	3.39 ± 0.15 kcal/mol	5.14 ± 0.11 kcal/mol	4.83 ± 0.16 kcal/mol
SAGKTIVIKAKTAEEAINALLKELKKKGEKVKITVTVYDKNGKEVYRVTIEIDPKEKGKIKIKVEKVPSAGG [r19_85_TrROS_Hall]	2.19 ± 0.22 kcal/mol	3.65 ± 0.2 kcal/mol	3.33 ± 0.44 kcal/mol
SAGKVEIKEVSVDPNTDEVKVTFKNPNVPPGTKIVVYPKDGKPIEFETEPNKEVTLTLPKDVEKIEFEGSAG [r14_671_TrMRF]	-0.298 ± 0.13 kcal/mol	0.381 ± 0.14 kcal/mol	0.0919 ± 0.15 kcal/mol
SAGKVKATYDPKTGTLTITFNVKKNEKINVKANIKIPEYNATVEKVETNGAKKDNEPVTVKIKLKNLKKSAG [r5_737_TrMRF]	1.06 ± 0.076 kcal/mol	2.75 ± 0.12 kcal/mol	1.94 ± 0.54 kcal/mol
SAGKVKIEVEEVPPNVKKVKVESLEELLEAAKKLPPGAVVEVELEDGSKVTVVLNKDGKVVEVKKEPVPSAG [r5_506_TrROS_Hall]	2.61 ± 0.35 kcal/mol	0.9 ± 0.16 kcal/mol	1.58 ± 0.27 kcal/mol
SAGKVKIVKIDKGKNKITIEFYDDGKKIATIPFPPNFPNTKVIAEVNEDGSIKVTFISGDKPIEITIDASAG [r5_533_TrMRF]	2.57 ± 0.16 kcal/mol	2.64 ± 0.1 kcal/mol	2.59 ± 0.12 kcal/mol
SAGKVKVEKLEDGTVIVEAEIKDPETDEYIKIFDLVTFNPETGYALVPRLVIKGDKPFTFPVLVKLPKSAGG [r19_289_TrMRF]	0.0636 ± 0.067 kcal/mol	0.931 ± 0.11 kcal/mol	0.671 ± 0.12 kcal/mol
SAGKVTVERDPSTNVVNVTVEVERERDVPPGAPVTETIIIPARVKFDEDGKLVEPISLDDILAAIRAAGSAG [r5_239_TrMRF]	0.221 ± 0.12 kcal/mol	0.684 ± 0.095 kcal/mol	0.629 ± 0.21 kcal/mol
SAGKYIMHPIKAGAEIKITIPPEGYRIKIGMYYPNGGKMEEHEVPIKPGKTLEFKIPDPNFFVMIEPEPSAG [r5_797_TrROS]	0.984 ± 0.1 kcal/mol	1.57 ± 0.25 kcal/mol	1.3 ± 0.26 kcal/mol
SAGLAAAIAAAGAIAEALGVTVRVEVFRDGELVGTFEIPAPVGDGEPVSLEVRLPDPEVTVRFELRIPGSAG [r14_728_TrMRF]	2.26 ± 0.14 kcal/mol	2.51 ± 0.037 kcal/mol	2.5 ± 0.11 kcal/mol
SAGLDEEAYRNGLTVYLTSRLPGPDVLRPQWFDVTPEGDGFTYNVALPDGVPVNLEVLSRKVLSPEELLSAG [r14_427_JUSTAS]	-0.489 ± 0.51 kcal/mol	0.149 ± 0.32 kcal/mol	0.0205 ± 0.19 kcal/mol
SAGLEVVKKLAEELGFPVEILRVEYDPETGELTFEAVARPKDGKTRRVRIRIRVPKESDEVEIELEYFDSAG [r5_929_TrMRF]	4.67 ± 0.11 kcal/mol	3.95 ± 0.082 kcal/mol	4.51 ± 0.1 kcal/mol
SAGLGLEKAKKLAEKIAETLKKELEKELGIPADQIKVEAKVEKLPDGSYKITVKINLKDIPIEKVFYVDSAG [r14_226_TrMRF]	3.5 ± 0.52 kcal/mol	2.9 ± 0.069 kcal/mol	2.87 ± 0.31 kcal/mol
SAGLKVEIFPMDGTEQTIPIPAEDADPLVDEFQDNGFKVDNVEVDPDGEVWIPIKFPNGRPWMIEIDWESAG [r5_645_TrROS]	-0.0958 ± 0.093 kcal/mol	-0.0946 ± 0.31 kcal/mol	0.0616 ± 0.29 kcal/mol
SAGLRVVAVARTPDGSLVVVYELPDRLVVLRYTPTAITSVAVFPVPPVPPPPAVPRYYDPVTGRWVDGSAGG [r19_254_TrMRF]	1.71 ± 0.029 kcal/mol	3.641 ± 0.026 kcal/mol	3.02 ± 0.061 kcal/mol
SAGMAVVKITLEYEDGRKEEFILFVESENPEEVLEEAEEALAELIEELDVPLKSATIEIYDIPPDEELSAGG [r19_335_TrMRF]	2.12 ± 0.11 kcal/mol	3.39 ± 0.09 kcal/mol	3 ± 0.1 kcal/mol
